Drawing on the array DNA melting data of Ke et al., this text covers Tm for 66 substances.

By Tm is commonly meant the temperature at the midpoint of the melting transition.

This data set can be described thus: melting temperature; melt of duplexes. To be noted: sodium 0.0675 M; strand 1 µM.
As for “CGACGTGCCATATGTGCTG+CAGCACATGGCGCACGTCG ((((((((...((((((((+))))))))...))))))))”, the Tm was 50.3 °C.

On to “CGACGTGCACTATGTGCTG+CAGCACATGACGCACGTCG ((((((((...((((((((+))))))))...))))))))”, for which the Tm turned out to be 44.6 °C.

On to “CGACGTGCACAATGTGCTG+CAGCACATCGTGCACGTCG ((((((((((.((((((((+)))))))).))))))))))”, for which the Tm came out at 53 °C.

In the case of “CGACGTGCCCTATGTGCTG+CAGCACATGCCGCACGTCG ((((((((...((((((((+))))))))...))))))))”, the Tm amounted to 47.7 °C.

For the substance “CGACGTGCCAAATGTGCTG+CAGCACATTTGGCACGTCG (((((((((((((((((((+)))))))))))))))))))”, the Tm amounted to 64.5 °C.

For “CGACGTGCGAGATGTGCTG+CAGCACATATGGCACGTCG ((((((((.(.((((((((+)))))))).).))))))))”, the Tm was found to be 53.3 °C.

For “CGACGTGCCGAATGTGCTG+CAGCACATTAAGCACGTCG ((((((((..(((((((((+)))))))))..))))))))”, the Tm is 52.3 °C.

Take “CGACGTGCAAGATGTGCTG+CAGCACATTTGGCACGTCG ((((((((.(.((((((((+)))))))).).))))))))”: the Tm stood at 52.5 °C.

Regarding “CGACGTGCCGAATGTGCTG+CAGCACATCCAGCACGTCG ((((((((.(.((((((((+)))))))).).))))))))”, the Tm is 49.8 °C.

Consider “CGACGTGCCCGATGTGCTG+CAGCACATGCGGCACGTCG (((((((((..((((((((+))))))))..)))))))))”, for which the Tm is 54.6 °C.

With “CGACGTGCACTATGTGCTG+CAGCACATGCGGCACGTCG ((((((((...((((((((+))))))))...))))))))”, the Tm worked out at 43.3 °C.

“CGACGTGCCGTATGTGCTG+CAGCACATATCGCACGTCG ((((((((..(((((((((+)))))))))..))))))))”: the Tm came to 51.8 °C.

With “CGACGTGCTAAATGTGCTG+CAGCACATACTGCACGTCG ((((((((...((((((((+))))))))...))))))))”, the melting temperature (Tm) was determined as 49.7 °C.

Consider “CGACGTGCCTCATGTGCTG+CAGCACATGGCGCACGTCG ((((((((..(((((((((+)))))))))..))))))))”, for which the Tm came to 52.5 °C.

Turning to “CGACGTGCGTTATGTGCTG+CAGCACATGACGCACGTCG ((((((((((.((((((((+)))))))).))))))))))”, the Tm amounted to 58.9 °C.

On to “CGACGTGCTAGATGTGCTG+CAGCACATACAGCACGTCG (((((((((..((((((((+))))))))..)))))))))”, for which the Tm stood at 53.2 °C.

For “CGACGTGCGTAATGTGCTG+CAGCACATTGTGCACGTCG ((((((((..(((((((((+)))))))))..))))))))”, the Tm came out at 52 °C.

Regarding “CGACGTGCGTGATGTGCTG+CAGCACATTCGGCACGTCG ((((((((...((((((((+))))))))...))))))))”, the Tm turned out to be 51.5 °C.

Turning to “CGACGTGCACAATGTGCTG+CAGCACATTTGGCACGTCG ((((((((..(((((((((+)))))))))..))))))))”, the Tm is 51.2 °C.

Take “CGACGTGCCCTATGTGCTG+CAGCACATCTGGCACGTCG (((((((((..((((((((+))))))))..)))))))))”: the Tm stood at 53.2 °C.

As for “CGACGTGCCTGATGTGCTG+CAGCACATAACGCACGTCG ((((((((.(.((((((((+)))))))).).))))))))”, the Tm stood at 48.8 °C.

For the substance “CGACGTGCTGCATGTGCTG+CAGCACATGCGGCACGTCG ((((((((.((((((((((+)))))))))).))))))))”, the Tm turned out to be 63 °C.

As for “CGACGTGCCTAATGTGCTG+CAGCACATCTAGCACGTCG ((((((((...((((((((+))))))))...))))))))”, the Tm amounted to 48.8 °C.

For the substance “CGACGTGCTGCATGTGCTG+CAGCACATTGAGCACGTCG (((((((((..((((((((+))))))))..)))))))))”, the Tm stood at 52.2 °C.

On to “CGACGTGCTTAATGTGCTG+CAGCACATGGAGCACGTCG (((((((((..((((((((+))))))))..)))))))))”, for which the Tm came to 54.4 °C.

Regarding “CGACGTGCCCGATGTGCTG+CAGCACATCCTGCACGTCG ((((((((..(((((((((+)))))))))..))))))))”, the Tm is 52.5 °C.

Regarding “CGACGTGCACTATGTGCTG+CAGCACATGAAGCACGTCG ((((((((...((((((((+))))))))...))))))))”, the Tm is 45.9 °C.

In the case of “CGACGTGCCTAATGTGCTG+CAGCACATATAGCACGTCG ((((((((...((((((((+))))))))...))))))))”, the Tm was 49.6 °C.

Consider “CGACGTGCCTTATGTGCTG+CAGCACATGAAGCACGTCG ((((((((.(.((((((((+)))))))).).))))))))”, for which the Tm stood at 50.5 °C.

On to “CGACGTGCTTTATGTGCTG+CAGCACATGCAGCACGTCG (((((((((..((((((((+))))))))..)))))))))”, for which the Tm came to 50.9 °C.

For the substance “CGACGTGCAGTATGTGCTG+CAGCACATTTGGCACGTCG ((((((((...((((((((+))))))))...))))))))”, the Tm turned out to be 49.2 °C.

On to “CGACGTGCGATATGTGCTG+CAGCACATAGAGCACGTCG ((((((((..(((((((((+)))))))))..))))))))”, for which the Tm was 58.5 °C.

For “CGACGTGCAGAATGTGCTG+CAGCACATCATGCACGTCG (((((((((..((((((((+))))))))..)))))))))”, the Tm was found to be 53 °C.

Regarding “CGACGTGCTAAATGTGCTG+CAGCACATAATGCACGTCG ((((((((...((((((((+))))))))...))))))))”, the Tm was 50.7 °C.

Turning to “CGACGTGCTTGATGTGCTG+CAGCACATCCAGCACGTCG (((((((((.(((((((((+))))))))).)))))))))”, the Tm worked out at 57.1 °C.

Consider “CGACGTGCCTCATGTGCTG+CAGCACATATAGCACGTCG ((((((((...((((((((+))))))))...))))))))”, for which the Tm came out at 48.8 °C.

“CGACGTGCGCCATGTGCTG+CAGCACATGGGGCACGTCG ((((((((.((((((((((+)))))))))).))))))))”: the Tm was 63.2 °C.

As for “CGACGTGCCCGATGTGCTG+CAGCACATCCAGCACGTCG ((((((((..(((((((((+)))))))))..))))))))”, the Tm was 52.7 °C.

In the case of “CGACGTGCATTATGTGCTG+CAGCACATTCGGCACGTCG ((((((((...((((((((+))))))))...))))))))”, the Tm worked out at 48.5 °C.

As to “CGACGTGCGTCATGTGCTG+CAGCACATCCTGCACGTCG ((((((((...((((((((+))))))))...))))))))”, the Tm amounted to 48.9 °C.

Turning to “CGACGTGCGGCATGTGCTG+CAGCACATAGCGCACGTCG (((((((((..((((((((+))))))))..)))))))))”, the Tm is 55.9 °C.

As for “CGACGTGCAATATGTGCTG+CAGCACATCTTGCACGTCG ((((((((((.((((((((+)))))))).))))))))))”, the Tm was 54.8 °C.

With “CGACGTGCATAATGTGCTG+CAGCACATTAAGCACGTCG ((((((((.((((((((((+)))))))))).))))))))”, the Tm stood at 55.1 °C.

Consider “CGACGTGCGGCATGTGCTG+CAGCACATTTTGCACGTCG ((((((((...((((((((+))))))))...))))))))”, for which the Tm was 48.7 °C.

For “CGACGTGCAAAATGTGCTG+CAGCACATGCGGCACGTCG ((((((((...((((((((+))))))))...))))))))”, the midpoint of thermal melting (Tm) was 51.2 °C.

For the substance “CGACGTGCCAGATGTGCTG+CAGCACATCATGCACGTCG ((((((((..(((((((((+)))))))))..))))))))”, the Tm worked out at 53.4 °C.

Take “CGACGTGCTGGATGTGCTG+CAGCACATAATGCACGTCG ((((((((...((((((((+))))))))...))))))))”: the Tm is 50.7 °C.

For the substance “CGACGTGCCGTATGTGCTG+CAGCACATCGTGCACGTCG ((((((((...((((((((+))))))))...))))))))”, the midpoint of thermal melting (Tm) is 51 °C.

For “CGACGTGCTCAATGTGCTG+CAGCACATGTTGCACGTCG ((((((((...((((((((+))))))))...))))))))”, the Tm amounted to 50.1 °C.

For the substance “CGACGTGCCAAATGTGCTG+CAGCACATCACGCACGTCG ((((((((...((((((((+))))))))...))))))))”, the Tm was determined as 47.3 °C.

Turning to “CGACGTGCTTCATGTGCTG+CAGCACATCGCGCACGTCG ((((((((...((((((((+))))))))...))))))))”, the Tm worked out at 46.2 °C.

Consider “CGACGTGCGCCATGTGCTG+CAGCACATCTGGCACGTCG ((((((((...((((((((+))))))))...))))))))”, for which the Tm was found to be 47.4 °C.

Take “CGACGTGCACGATGTGCTG+CAGCACATGAAGCACGTCG ((((((((...((((((((+))))))))...))))))))”: the Tm was 46.2 °C.

“CGACGTGCCGAATGTGCTG+CAGCACATGCAGCACGTCG ((((((((.(.((((((((+)))))))).).))))))))”: the Tm is 52.6 °C.

Turning to “CGACGTGCGAAATGTGCTG+CAGCACATATTGCACGTCG ((((((((.(.((((((((+)))))))).).))))))))”, the Tm is 51.9 °C.

As for “CGACGTGCGACATGTGCTG+CAGCACATATGGCACGTCG ((((((((.(.((((((((+)))))))).).))))))))”, the Tm turned out to be 50.2 °C.

“CGACGTGCGTCATGTGCTG+CAGCACATTGCGCACGTCG (((((((((..((((((((+))))))))..)))))))))”: the Tm turned out to be 54.7 °C.

“CGACGTGCTTTATGTGCTG+CAGCACATGGCGCACGTCG ((((((((...((((((((+))))))))...))))))))”: the Tm turned out to be 47.2 °C.

Consider “CGACGTGCACCATGTGCTG+CAGCACATGCCGCACGTCG ((((((((..(((((((((+)))))))))..))))))))”, for which the Tm turned out to be 48.6 °C.

In the case of “CGACGTGCGAGATGTGCTG+CAGCACATCGAGCACGTCG ((((((((..(((((((((+)))))))))..))))))))”, the Tm came to 64.5 °C.

As to “CGACGTGCAGCATGTGCTG+CAGCACATCACGCACGTCG ((((((((...((((((((+))))))))...))))))))”, the Tm came out at 46.7 °C.

“CGACGTGCGTGATGTGCTG+CAGCACATGGTGCACGTCG ((((((((...((((((((+))))))))...))))))))”: the Tm stood at 47.8 °C.

With “CGACGTGCTCTATGTGCTG+CAGCACATTGTGCACGTCG ((((((((.(.((((((((+)))))))).).))))))))”, the Tm was 48.3 °C.

For “CGACGTGCCAGATGTGCTG+CAGCACATTGAGCACGTCG ((((((((...((((((((+))))))))...))))))))”, the Tm was 52.1 °C.

Turning to “CGACGTGCTAGATGTGCTG+CAGCACATCAAGCACGTCG (((((((((.(((((((((+))))))))).)))))))))”, the Tm was 57.5 °C.

With “CGACGTGCAGAATGTGCTG+CAGCACATAAAGCACGTCG ((((((((...((((((((+))))))))...))))))))”, the Tm was 50.5 °C.
